Here are results for one molecule from patent publication US20260258113A1 (US Dept. of Health and Human Services, published 2026).

For this assay, the target named is T1, purified human alpha globin, biotinylated and immobilized on streptavidin biosensors (human, UniProt P69905 2-142, biotinylated using EZ-Link NHS-PEG4 Biotinylation Kit (sites not given)).
T1 construct: Ligand on the sensor in the bio-layer interferometry assay; also called full-length alpha globin
Description: bio-layer interferometry (Octet RED96), biotinylated alpha globin on streptavidin sensors, AHSP in solution at 62.5-1000 nM; AHSP as analyte on immobilized alpha globin (FIG. 2D). Background: Biolayer interferometry detects binding as a change in optical thickness at a sensor tip.

T1 sequence (P69905 2-142 limits assumed): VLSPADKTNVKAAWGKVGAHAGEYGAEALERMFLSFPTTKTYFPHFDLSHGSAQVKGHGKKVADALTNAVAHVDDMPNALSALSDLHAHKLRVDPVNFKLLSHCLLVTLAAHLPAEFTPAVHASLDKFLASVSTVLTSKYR

B1: alpha hemoglobin stabilizing protein (other, UniProt Q9NZD4 1-102, looked up)
chain: MALLKANKDLISAGLKEFSVLLNQQVFNDPLVSEEDMVTVVEDWMNFYINYYRQQVTGEPQERDKALQELRQELNTLANPFLAKYRDFLKSHELPSHPPPSS
notes: Comparison analyte in the BLI assay; also called AHSP
By Kd is commonly meant the constant that tells how readily two partners part at equilibrium. Higher therefore signals weaker binding. In turn, B1 yielded a Kd of 109 nM.
